In US12366576B2, “Compositions, assays, and methods for direct modulation of fatty acid metabolism” (Dana-Farber Cancer Institute, Inc., priority 2016, dated 2025):
Bridge positions count the residues as written; N and C are the ends. Square brackets hold non-standard residues; d marks the D form. Ends that are not written are not given here. Peptide text beside a SMILES is read from it. S5 = C=CCCC[C@](C)(N)C(=O)O

Target: T1, native VLCAD (Mus musculus, UniProt P50544)
T1 construct: As for native VLCAD from MEF lysates; endogenous in cells; host or cells: SV-40-transformed wild-type mouse embryonic fibroblasts (lysate)
T1 sequence (P50544 42-656): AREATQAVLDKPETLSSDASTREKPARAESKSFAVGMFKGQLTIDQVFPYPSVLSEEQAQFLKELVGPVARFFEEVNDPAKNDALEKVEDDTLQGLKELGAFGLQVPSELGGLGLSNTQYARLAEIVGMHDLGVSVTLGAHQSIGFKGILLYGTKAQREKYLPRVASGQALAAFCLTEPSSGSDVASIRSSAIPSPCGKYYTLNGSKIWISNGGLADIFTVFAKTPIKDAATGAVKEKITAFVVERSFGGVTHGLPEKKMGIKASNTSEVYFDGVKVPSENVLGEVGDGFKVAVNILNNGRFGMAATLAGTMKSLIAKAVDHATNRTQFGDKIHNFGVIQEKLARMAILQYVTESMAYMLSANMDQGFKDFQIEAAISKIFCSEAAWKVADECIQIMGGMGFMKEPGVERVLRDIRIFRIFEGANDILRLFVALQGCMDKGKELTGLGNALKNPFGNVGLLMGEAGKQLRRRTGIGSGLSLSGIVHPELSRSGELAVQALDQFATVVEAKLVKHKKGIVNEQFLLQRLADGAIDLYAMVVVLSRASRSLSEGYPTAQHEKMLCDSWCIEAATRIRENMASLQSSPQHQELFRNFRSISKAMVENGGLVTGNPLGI
Test: Biotinylated SAHB pulldown from MEF lysates, anti-VLCAD Western analysis
Format: binding
Conditions: for best overall binders to VLCAD based on pull-downs and ITC: summary of binding properties; for summary of binding properties: binding to VLCAD: pull-downs and ITC
Excerpt: To validate the MS result, the pulldowns were repeated and eluates run on a gel for anti-VLCAD Western blot analysis. […] All peptides faithfully recapitulated native BH3-binding propensities for endogenous MCL-1 protein (FIG. 8). The eluates were then probed for the other members of the acyl-CoA dehydrogenase family that manifest shorter fatty acid substrate specificities. MCL-1 SAHBD was able to pull down VLCAD, but not MCAD or SCAD (FIG. 9). Because the traditional MCL-1 staple location differs from that of the BIM, BID, and BAD SAHBs, it was important to confirm that the observed VLCAD binding specificity was due to BH3 sequence selectivity, not staple position. A BIM SAHB with the traditional MCL-1 staple (BIM SAHBF), and a MCL-1 stapled peptide with the traditional BIM staple (MCL-1 SAHBA), were generated. […] To confirm that the selective interaction between MCL-1 SAHBD and VLCAD is direct, recombinant VLCAD was generated and purified by size exclusion chromatography (FIGS. 11 and 12).
The binding determinants for the MCL-1 BH3/VLCAD interaction were investigated by generating a series of biotinylated MCL-1 SAHBD alanine point mutants (FIG. 18A) and performing streptavidin pull-downs from MEF lysates, followed by VLCAD and MCL-1 western analysis of the resulting eluates. […] Native alanines and residues not mutated are colored white. The dotted semicircles highlight the distinctive MCL-1 BH3 binding interfaces for VLCAD versus MCL-1 engagement, as defined by the differential sensitivities to alanine mutagenesis.
Wild-type MEFs were trypsinized, washed once with cold PBS, and lysed on ice with NP-40 lysis buffer (50 mM Tris, pH 7.4, 150 mM NaCl, 0.5% (v/v) NP-40, complete protease inhibitor pellet (Roche)) using 1 ml of lysis buffer for every 10 million cells lysed. Cellular debris was pelleted at 14,000 g for 10 min at 4° C., and the supernatant was quantified using the BCA Protein Assay Kit (Thermo Fisher Scientific). 2 mg of lysate per pulldown were then exposed to 50 μL of pre-equilibrated High Capacity Streptavidin Agarose beads (Thermo Fisher Scientific). The pre-cleared lysates were then incubated with 15 nmol biotinylated SAHBs (or vehicle, 1.5% (v/v) DMSO) overnight at 4° C., followed by addition of 50 μL of pre-equilibrated High Capacity Streptavidin Agarose beads for 2 hours at 4° C. The beads were then pelleted and washed with NP-40 lysis buffer three times before eluting the protein sample from the beads by heating at 70° C. for 10 min in SDS loading buffer. Samples were then subjected to electrophoresis and either Western analysis or Coomassie stain (SimplyBlue Safe Stain, Thermo Fisher Scientific). The antibodies used for Western analysis were the following: MCL-1 (Rockland 600-401-394; 1:1000 in 3% BSA), VLCAD (Thermo Fisher Scientific PA5-29959; 1:1000 in 1% milk+0.1% Tween-20), MCAD (Thermo Fisher Scientific PA5-27201; 1:1000 in 3% BSA), and SCAD (Abcam ab154823; 1:1000 in 3% BSA). Coomassie stained gels were then processed for proteomics analysis (see below). Biotinylated SAHB pulldowns of recombinant protein were performed as above incubating 5 nmol of SAHB with 10 pmol of rVLCAD in 500 μL total volume. Densitometry analyses were performed using ImageJ software.

Compound | best overall binders to VLCAD based on pull-downs and ITC | summary of binding properties: binding to VLCAD | effect of alanine mutation on biotinylated MCL-1 SAHBD interaction with VLCAD (pull-downs from MEF lysates) | pull down of VLCAD from cellular lysates (wild-type MEF lysates, 15 nmol biotinylated SAHB)
CC(=O)N[C@@H](CCCNC(=N)N)C(=O)N[C@@H](CCCCN)C(=O)N[C@@H](C)C(=O)N[C@@H](CC(C)C)C(=O)N[C@@H](CCC(=O)O)C(=O)N[C@H](C(=O)N[C@@H](CC(C)C)C(=O)N[C@@H](CCCNC(=N)N)C(=O)N[C@@H](CCCNC(=N)N)C(=O)N[C@H](C(=O)NCC(=O)N[C@@H](CC(=O)O)C(=O)NCC(=O)N[C@@H](C)C(=O)N[C@@]1(C)CCCC=CCCC[C@@](C)(C(=O)N[C@H](C(=O)N[C@@H](C)C(=O)N[C@@H](Cc2ccccc2)C(N)=O)[C@@H](C)O)NC(=O)[C@H](Cc2c[nH]cn2)NC(=O)[C@H](CC(N)=O)NC(=O)[C@H](CCCNC(=N)N)NC1=O)C(C)C)[C@@H](C)O [V220A] (Ac-RKALETLRRVGDGA[S5]RNH[S5]TAF-NH2; staple 15-19; N-terminus and C-terminus assumed) | Best overall binders to VLCAD | Binds |  | 
D218A: biotinylated MCL-1 SAHBD alanine point mutant D218A (RKALETLRRVGAGV[S5]RNH[S5]TAF; staple 15-19; also: biotinylated, place not given here) | Best overall binders to VLCAD | Binds |  | 
F228A: biotinylated MCL-1 SAHBD alanine point mutant F228A (RKALETLRRVGDGV[S5]RNH[S5]TAA; staple 15-19; also: biotinylated, place not given here) |  | Does not bind |  | 
L213A: biotinylated MCL-1 SAHBD alanine point mutant L213A (RKALETARRVGDGV[S5]RNH[S5]TAF; staple 15-19; also: biotinylated, place not given here) |  | Does not bind | disrupted | 
MCL-1 SAHBD: hydrocarbon-stapled peptide mimicking the MCL-1 BH3 domain (Stabilized Alpha-Helix of BCL-2 Domain), SEQ ID NO:19 (RKALETLRRVGDGV[S5]RNH[S5]TAF; staple 15-19) |  | Binds |  | VLCAD was detected
R207A: biotinylated MCL-1 SAHBD alanine point mutant R207A (AKALETLRRVGDGV[S5]RNH[S5]TAF; staple 15-19; also: biotinylated, place not given here) |  | Does not bind |  | 
R214A: biotinylated MCL-1 SAHBD alanine point mutant R214A (RKALETLARVGDGV[S5]RNH[S5]TAF; staple 15-19; also: biotinylated, place not given here) |  | Does not bind |  | 
R215A: biotinylated MCL-1 SAHBD alanine point mutant R215A (RKALETLRAVGDGV[S5]RNH[S5]TAF; staple 15-19; also: biotinylated, place not given here) |  | weakly or not |  | 
